Test results as given in US20050281828A1 (published 2005).

Key:
[1] = biological target: T1, L-SIGN receptor on cells (K562/L-SIGN) (human, UniProt Q9H2X3 1-399); test: flow cytometry, K562/L-SIGN cells
T1 construct: whole, on cells; also called L-SIGN on LSECs
T1 sequence (looked up): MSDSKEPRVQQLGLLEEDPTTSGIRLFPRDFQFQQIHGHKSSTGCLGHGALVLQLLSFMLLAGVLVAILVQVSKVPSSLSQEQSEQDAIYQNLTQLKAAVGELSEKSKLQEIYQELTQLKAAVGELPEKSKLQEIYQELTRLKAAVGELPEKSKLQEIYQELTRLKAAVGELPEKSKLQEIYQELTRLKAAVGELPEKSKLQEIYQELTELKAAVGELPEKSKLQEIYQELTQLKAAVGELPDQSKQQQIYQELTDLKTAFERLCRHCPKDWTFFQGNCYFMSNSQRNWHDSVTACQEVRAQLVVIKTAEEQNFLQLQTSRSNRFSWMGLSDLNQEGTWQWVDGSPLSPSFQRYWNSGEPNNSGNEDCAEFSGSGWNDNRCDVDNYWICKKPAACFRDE

[2] = biological target: T2, recombinant human L-SIGN (L-SIGNFc fusion protein) (human, UniProt Q9H2X3 78-399); test: ELISA, recombinant L-SIGN
T2 construct: also called DC-SIGNR; human DC-SIGNR; not shown: Fc part of the fusion
T2 sequence (looked up): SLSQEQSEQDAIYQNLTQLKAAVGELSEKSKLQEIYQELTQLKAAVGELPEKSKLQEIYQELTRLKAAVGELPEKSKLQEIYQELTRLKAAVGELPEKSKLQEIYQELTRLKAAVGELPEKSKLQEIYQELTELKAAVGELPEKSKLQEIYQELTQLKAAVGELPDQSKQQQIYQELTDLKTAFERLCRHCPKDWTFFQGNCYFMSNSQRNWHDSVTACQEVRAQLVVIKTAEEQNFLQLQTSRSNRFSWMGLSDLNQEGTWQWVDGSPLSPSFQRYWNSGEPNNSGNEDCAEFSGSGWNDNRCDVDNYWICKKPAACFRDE

[3] = biological target: T3, recombinant human DC-SIGN (human, UniProt Q9NNX6 62-404); test: ELISA, recombinant DC-SIGN
T3 construct: Added to plates coated with anti-human Fc, so probably an Fc fusion
T3 sequence (looked up): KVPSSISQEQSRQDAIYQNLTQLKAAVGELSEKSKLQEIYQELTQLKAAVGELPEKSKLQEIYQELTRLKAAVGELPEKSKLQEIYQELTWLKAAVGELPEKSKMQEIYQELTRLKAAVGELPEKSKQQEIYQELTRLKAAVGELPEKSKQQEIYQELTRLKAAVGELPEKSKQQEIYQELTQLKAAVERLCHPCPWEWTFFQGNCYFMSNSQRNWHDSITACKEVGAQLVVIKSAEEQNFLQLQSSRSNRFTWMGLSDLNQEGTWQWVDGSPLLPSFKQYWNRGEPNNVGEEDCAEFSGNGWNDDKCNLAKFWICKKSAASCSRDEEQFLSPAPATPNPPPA

[4] = biological target: T4, DC-SIGN receptor on cells (K562/DC-SIGN) (human, UniProt Q9NNX6 1-404); test: flow cytometry, K562/DC-SIGN cells
T4 construct: whole, on cells
T4 sequence (looked up): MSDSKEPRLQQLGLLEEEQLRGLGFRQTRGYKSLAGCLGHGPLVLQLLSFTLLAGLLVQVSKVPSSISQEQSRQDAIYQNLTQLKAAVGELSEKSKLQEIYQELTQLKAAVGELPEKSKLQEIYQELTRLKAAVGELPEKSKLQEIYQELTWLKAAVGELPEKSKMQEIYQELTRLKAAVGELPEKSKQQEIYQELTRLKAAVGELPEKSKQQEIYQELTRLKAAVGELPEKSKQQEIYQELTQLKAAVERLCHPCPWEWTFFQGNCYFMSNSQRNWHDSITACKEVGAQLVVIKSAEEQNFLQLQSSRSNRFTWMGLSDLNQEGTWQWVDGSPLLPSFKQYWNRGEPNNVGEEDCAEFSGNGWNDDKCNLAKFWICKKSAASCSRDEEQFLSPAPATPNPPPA

Binder | Geo. Mean Fluorescence [1] | OD405 [2] [OD405] | OD405 [3] [OD405] | binding result [4]
IgG1k clone A10 (Fab, V domains shown, phage-Fab screening) VH: EVQLQQSGPELEKPGASVKISCKASGYSFTGYNMNWVKQSNGKSLEWIGNIDPYYGDITYNQKFKGKATLTVDKSSSTAYMQLKSLTSEDSAVYYCARTATALYTMDYWGQGTSVTVSS VL: EIVLTQSPAIMSASLGERVTMTCTASSSVSSSYLHWYQQKPGSSPKLWIYSTSNLASGVPARFSGSGSGTSYSLTISSMEAEDAATYYCHQYHRSPQTFGGGTKLEIK | 21.3 | 2.9 | 0.1 | –
IgG1k clone B7 (Fab, V domains shown, phage-Fab screening) VH: EVQLQQSGPELEKPGASVKISCKASGYSFTGYNMNWVKQSSGKSLEWIGNFDPYYGVITYNQKFKGKATLTVDKSSSTAYMQLKSLTSEDSAVYYCARTATALYTMDYWGQGTSVTVSS VL: EIVLTQSPAIMSASPGEKVTMTCRASSSVSSSYLHWYQQKSGASPKLWIYSTSNLASGVPARFSGSGSGTSYSLTISSVEAEDAATYYCQQYSGYPLTFGSGTKLEIK | 90.9 | 2.7 | 0.1 | –
IgG1k clone D8 (Fab, V domains shown, phage-Fab screening) VH: EVQLQQSGPELEKPGASVKISCKASGYSFTGYNMNWVKQSNGKSLEWIGNIDPYYGGSSYNQKFKGKATLTVDKSSSTAYMQLKSLTSEDSAVYYCARTATALYTMDYWGQGTSVTVSS VL: EIVLTQSPAIMSASPGEKVTMTCRASSSVSSSYLHWYQQKSGASPKLWIYSTSNLASGVPARFSGSGSGTSYSLTISSVEAEDAATYYCQQYSGYPGTFGGGTKLEIK | 17.3 | 2.1 | 0.1 | –
IgG1k clone C7 (phage-Fab screening) (Fab, V domains shown) VH: EVQLQQSGPELEKPGASVKISCKASGYSFTGYNMNWVKQSSGKSLEWIGNFDPYYGVITYNQKFKGKATLTVDKSSSTAYMQLKSLTSEDSAVYYCARTATALYTMDYWGQGTSVTVSS VL: EIVLTQSPAIMSASPGEKVTMTCRASSSVSSSYLHWYQQKSGASPKLWIYSTSNLASGVPARFSGSGSGTSYSLTISSVEAEDAATYYCQQYSGYPLTFGSGTKLEIK | 101 | 3.5 | 0.1 | –
L-SIGN Fab clone C7 (soluble, purified) (Fab, V domains shown) VH: EVQLQQSGPELEKPGASVKISCKASGYSFTGYNMNWVKQSSGKSLEWIGNFDPYYGVITYNQKFKGKATLTVDKSSSTAYMQLKSLTSEDSAVYYCARTATALYTMDYWGQGTSVTVSS VL: EIVLTQSPAIMSASPGEKVTMTCRASSSVSSSYLHWYQQKSGASPKLWIYSTSNLASGVPARFSGSGSGTSYSLTISSVEAEDAATYYCQQYSGYPLTFGSGTKLEIK | – | – | – | no binding (tested: 20 ug/ml)
